Target: Type V collagen from human placenta (human) (UniProt P20908)
Assay: ELISA; type V collagen coated on 96-well plates (10 ug/ml in carbonate coating buffer, overnight 4 °C), blocked with 0.5 % BSA in TBS; about 1.0x10^8 whole bacteria per well, 1 h at 37 °C; adhered bacteria detected with anti-serotype a or anti-serotype b whole-cell polyclonal antibody and HRP secondary; activity normalised to a reference strain set at 100 %

Chain of UniProt P20908 (P20908 38-1605, chain 1 of 2): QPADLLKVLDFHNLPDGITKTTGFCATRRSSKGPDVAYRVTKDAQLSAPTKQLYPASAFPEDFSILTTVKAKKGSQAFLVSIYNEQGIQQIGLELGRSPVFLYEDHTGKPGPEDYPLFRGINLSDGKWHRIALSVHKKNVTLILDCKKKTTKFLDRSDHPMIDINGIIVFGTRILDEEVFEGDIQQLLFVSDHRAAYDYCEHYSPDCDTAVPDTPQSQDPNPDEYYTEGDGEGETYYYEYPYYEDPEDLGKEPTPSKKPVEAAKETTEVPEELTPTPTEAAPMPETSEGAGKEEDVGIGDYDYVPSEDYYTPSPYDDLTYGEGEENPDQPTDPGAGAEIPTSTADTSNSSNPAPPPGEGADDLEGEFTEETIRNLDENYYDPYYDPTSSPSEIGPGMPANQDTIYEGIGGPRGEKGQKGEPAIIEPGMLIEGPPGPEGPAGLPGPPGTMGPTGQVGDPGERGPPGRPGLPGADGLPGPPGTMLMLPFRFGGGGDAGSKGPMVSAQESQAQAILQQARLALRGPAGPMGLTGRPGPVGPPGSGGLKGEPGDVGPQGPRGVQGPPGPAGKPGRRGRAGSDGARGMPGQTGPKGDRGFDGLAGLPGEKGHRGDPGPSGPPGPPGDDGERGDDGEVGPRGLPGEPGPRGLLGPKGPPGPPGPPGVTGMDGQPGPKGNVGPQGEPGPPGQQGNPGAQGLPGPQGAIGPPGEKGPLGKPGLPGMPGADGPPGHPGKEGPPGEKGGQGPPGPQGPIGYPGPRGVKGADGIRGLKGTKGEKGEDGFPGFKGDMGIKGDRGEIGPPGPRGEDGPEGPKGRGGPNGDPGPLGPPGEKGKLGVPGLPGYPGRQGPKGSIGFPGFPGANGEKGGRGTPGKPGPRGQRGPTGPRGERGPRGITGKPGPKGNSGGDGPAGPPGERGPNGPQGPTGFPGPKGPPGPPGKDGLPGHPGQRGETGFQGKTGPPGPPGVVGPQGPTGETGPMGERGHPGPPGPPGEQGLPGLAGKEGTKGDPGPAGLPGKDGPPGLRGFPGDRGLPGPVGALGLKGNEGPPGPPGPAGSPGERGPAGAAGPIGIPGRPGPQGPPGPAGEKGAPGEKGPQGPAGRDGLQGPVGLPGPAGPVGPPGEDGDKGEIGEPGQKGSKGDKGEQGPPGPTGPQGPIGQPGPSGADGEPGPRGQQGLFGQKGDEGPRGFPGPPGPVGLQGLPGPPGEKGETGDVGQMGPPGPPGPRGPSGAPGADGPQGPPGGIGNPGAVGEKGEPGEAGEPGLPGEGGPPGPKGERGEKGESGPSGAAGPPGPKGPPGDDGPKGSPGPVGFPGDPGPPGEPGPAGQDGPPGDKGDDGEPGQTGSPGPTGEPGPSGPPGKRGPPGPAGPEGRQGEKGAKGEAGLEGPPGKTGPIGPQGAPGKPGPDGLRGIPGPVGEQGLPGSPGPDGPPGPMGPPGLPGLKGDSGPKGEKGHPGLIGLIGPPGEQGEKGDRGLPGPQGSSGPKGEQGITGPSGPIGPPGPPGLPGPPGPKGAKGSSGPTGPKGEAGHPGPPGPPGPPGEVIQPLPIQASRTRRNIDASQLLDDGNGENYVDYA
Chain of UniProt P20908 (P05997 27-1229, chain 2 of 2, further chain): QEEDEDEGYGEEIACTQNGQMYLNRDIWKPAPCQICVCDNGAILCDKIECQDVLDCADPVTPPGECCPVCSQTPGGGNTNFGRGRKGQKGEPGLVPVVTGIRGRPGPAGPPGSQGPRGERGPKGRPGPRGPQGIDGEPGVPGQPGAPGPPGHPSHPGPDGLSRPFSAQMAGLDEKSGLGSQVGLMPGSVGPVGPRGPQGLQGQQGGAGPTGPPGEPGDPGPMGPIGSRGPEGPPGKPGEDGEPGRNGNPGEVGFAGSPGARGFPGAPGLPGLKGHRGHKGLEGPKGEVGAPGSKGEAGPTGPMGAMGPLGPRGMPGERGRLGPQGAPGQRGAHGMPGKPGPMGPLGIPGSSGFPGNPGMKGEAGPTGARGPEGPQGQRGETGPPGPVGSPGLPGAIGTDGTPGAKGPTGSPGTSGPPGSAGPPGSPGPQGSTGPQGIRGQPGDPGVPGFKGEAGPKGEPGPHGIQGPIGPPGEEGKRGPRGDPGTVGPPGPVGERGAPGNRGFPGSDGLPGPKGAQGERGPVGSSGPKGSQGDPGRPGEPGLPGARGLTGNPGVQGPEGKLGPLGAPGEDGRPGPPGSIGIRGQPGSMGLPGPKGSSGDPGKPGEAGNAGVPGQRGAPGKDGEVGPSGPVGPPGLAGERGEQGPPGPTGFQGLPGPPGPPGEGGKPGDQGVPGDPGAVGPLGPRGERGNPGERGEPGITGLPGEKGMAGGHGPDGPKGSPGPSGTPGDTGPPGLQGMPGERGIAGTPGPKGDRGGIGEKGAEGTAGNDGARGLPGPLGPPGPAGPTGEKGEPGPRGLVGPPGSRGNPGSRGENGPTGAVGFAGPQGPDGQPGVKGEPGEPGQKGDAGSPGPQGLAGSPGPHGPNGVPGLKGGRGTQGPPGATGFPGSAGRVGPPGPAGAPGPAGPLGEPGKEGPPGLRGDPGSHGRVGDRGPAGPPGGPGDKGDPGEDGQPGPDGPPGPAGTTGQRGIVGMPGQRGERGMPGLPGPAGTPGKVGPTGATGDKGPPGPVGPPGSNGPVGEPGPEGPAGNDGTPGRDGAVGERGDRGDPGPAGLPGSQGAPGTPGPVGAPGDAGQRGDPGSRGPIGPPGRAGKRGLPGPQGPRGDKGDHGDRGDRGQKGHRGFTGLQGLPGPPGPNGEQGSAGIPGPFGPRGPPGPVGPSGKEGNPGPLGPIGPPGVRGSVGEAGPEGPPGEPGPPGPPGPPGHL

Row | Substance | fold increase in collagen binding over the emaA mutant strain ATCC 29523 | fold increase in collagen binding over the rmlC mutant strain | fold of the collagen binding of the serotype b wild-type strain
1 | a-EmaA (extracellular matrix protein adhesin A, 173 kDa isoform of serotype a) expressed from pKM753 in strain ATCC 29523 (natural protein) | > 2 fold |  | 
2 | a-EmaA expressed from a plasmid in the serotype b O-PS-deficient rmlC mutant strain (natural protein) |  | 4.6 fold | > 2 fold

Reference: paper PMC10233464
